These results are taken from patent US20260242448A1.

The experiment addresses S protein of the SARS-CoV-2 prototype strain on pseudo-virus (SARS-CoV-2 prototype strain) (UniProt P0DTC2). The experiment in a line: cell-based or functional assay.

Chain of LY-CoV1404 (antibody) (VH): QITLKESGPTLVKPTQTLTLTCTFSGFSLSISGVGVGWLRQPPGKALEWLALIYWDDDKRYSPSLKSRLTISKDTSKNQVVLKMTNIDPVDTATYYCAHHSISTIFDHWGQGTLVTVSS
Chain of LY-CoV1404 (antibody) (VL): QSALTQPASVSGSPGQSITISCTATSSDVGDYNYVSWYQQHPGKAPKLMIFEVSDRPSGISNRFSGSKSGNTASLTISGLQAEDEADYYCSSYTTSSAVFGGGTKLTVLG

LY-CoV1404 (antibody) came in with a Neutralization activity (IC50) against pseudo-virus of 1.19 ng/mL.
